Assay results: PMC2661965

T1: p65-V2, Q04207
T1 chain: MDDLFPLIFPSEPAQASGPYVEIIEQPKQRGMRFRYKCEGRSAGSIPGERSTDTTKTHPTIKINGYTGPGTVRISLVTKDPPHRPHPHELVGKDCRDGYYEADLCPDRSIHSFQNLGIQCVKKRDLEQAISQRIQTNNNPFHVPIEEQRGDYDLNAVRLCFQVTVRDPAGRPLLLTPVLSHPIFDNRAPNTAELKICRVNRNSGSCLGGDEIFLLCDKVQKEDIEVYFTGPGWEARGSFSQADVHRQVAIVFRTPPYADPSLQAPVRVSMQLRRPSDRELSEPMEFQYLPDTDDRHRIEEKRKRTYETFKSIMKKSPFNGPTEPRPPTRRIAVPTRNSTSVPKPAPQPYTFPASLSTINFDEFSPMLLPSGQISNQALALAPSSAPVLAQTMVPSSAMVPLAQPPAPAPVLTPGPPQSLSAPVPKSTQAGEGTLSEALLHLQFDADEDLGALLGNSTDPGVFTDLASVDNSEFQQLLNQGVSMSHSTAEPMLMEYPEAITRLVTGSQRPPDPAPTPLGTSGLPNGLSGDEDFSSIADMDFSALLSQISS

T2: V2-Trap-80, Q8VCD5
T2 chain: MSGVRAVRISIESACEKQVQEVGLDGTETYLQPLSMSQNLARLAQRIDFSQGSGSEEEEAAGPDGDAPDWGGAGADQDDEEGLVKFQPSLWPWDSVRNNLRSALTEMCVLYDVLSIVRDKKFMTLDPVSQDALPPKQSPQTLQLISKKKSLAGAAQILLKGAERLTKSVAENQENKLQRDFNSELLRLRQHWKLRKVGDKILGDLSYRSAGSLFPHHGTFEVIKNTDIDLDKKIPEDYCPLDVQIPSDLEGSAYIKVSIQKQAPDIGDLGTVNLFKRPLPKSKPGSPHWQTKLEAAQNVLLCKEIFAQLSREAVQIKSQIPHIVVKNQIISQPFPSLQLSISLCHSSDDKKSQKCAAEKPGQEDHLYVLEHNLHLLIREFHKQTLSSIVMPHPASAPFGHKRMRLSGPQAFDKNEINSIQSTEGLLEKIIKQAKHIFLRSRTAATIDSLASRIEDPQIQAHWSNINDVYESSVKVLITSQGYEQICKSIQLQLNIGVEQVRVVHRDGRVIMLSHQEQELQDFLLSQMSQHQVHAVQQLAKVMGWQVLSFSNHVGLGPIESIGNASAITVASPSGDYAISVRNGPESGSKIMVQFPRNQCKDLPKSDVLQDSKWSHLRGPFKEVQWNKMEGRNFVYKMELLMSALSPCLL


How the values were obtained:
Assay in all cases: BiFC
V2-Trap-80 = V2-Trap-80 (UniProt Q8VCD5); settings: HEK-293 cells, co-transfection; parent: est. 72; read off a plot
p65-V2 = p65-V2 (UniProt Q04207); settings: HEK-293 cells, co-transfection; parent: est. 740; read off a plot
p65-V2, Q04207 = target: T1, p65-V2, Q04207; settings: chain shown with the change; HEK-293 cells, co-transfection; parent: est. 740; read off a plot
V2-Trap-80, Q8VCD5 = target: T2, V2-Trap-80, Q8VCD5; settings: chain shown with the change; HEK-293 cells, co-transfection; parent: est. 72; read off a plot

Chain of p65ΔTA2 fused to Venus fragment 1 (Q04207 other isoform, or with tags, fused parts or gaps, stated change not applied): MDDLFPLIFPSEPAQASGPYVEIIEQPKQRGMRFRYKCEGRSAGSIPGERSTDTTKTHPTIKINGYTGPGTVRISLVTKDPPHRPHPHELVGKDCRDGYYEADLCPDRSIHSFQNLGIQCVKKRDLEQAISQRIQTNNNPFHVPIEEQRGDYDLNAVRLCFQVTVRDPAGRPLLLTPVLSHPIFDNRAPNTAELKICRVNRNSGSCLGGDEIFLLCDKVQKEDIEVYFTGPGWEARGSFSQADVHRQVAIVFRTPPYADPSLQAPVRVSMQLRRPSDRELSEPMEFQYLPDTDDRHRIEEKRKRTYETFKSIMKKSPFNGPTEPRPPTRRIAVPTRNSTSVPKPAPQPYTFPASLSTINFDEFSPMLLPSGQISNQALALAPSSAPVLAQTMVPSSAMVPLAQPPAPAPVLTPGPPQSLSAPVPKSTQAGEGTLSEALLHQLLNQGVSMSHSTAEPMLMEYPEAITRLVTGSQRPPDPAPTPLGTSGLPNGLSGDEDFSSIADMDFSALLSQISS

Row | Molecule | response (V2-Trap-80) [% wt p65] | response (p65-V2) [% wt p65] | response (p65-V2, Q04207) [% wt p65] | response (V2-Trap-80, Q8VCD5) [% wt p65]
1 | p65ΔTA2 fused to Venus fragment 1 (from UniProt Q04207) TA1 mut528-534 | 40 | 550 |  | 
2 | p65ΔTA2 fused to Venus fragment 1 (from UniProt Q04207) TA1 mut535-541 | 38 | 640 |  | 
3 | p65ΔTA2 fused to Venus fragment 1, Q04207 D539A; F540A (protein) MDDLFPLIFPSEPAQASGPYVEIIEQPKQRGMRFRYKCEGRSAGSIPGERSTDTTKTHPTIKINGYTGPGTVRISLVTKDPPHRPHPHELVGKDCRDGYYEADLCPDRSIHSFQNLGIQCVKKRDLEQAISQRIQTNNNPFHVPIEEQRGDYDLNAVRLCFQVTVRDPAGRPLLLTPVLSHPIFDNRAPNTAELKICRVNRNSGSCLGGDEIFLLCDKVQKEDIEVYFTGPGWEARGSFSQADVHRQVAIVFRTPPYADPSLQAPVRVSMQLRRPSDRELSEPMEFQYLPDTDDRHRIEEKRKRTYETFKSIMKKSPFNGPTEPRPPTRRIAVPTRNSTSVPKPAPQPYTFPASLSTINFDEFSPMLLPSGQISNQALALAPSSAPVLAQTMVPSSAMVPLAQPPAPAPVLTPGPPQSLSAPVPKSTQAGEGTLSEALLHQLLNQGVSMSHSTAEPMLMEYPEAITRLVTGSQRPPDPAPTPLGTSGLPNGLSGDEDFSSIADMAASALLSQISS |  |  | 600 | 35
